Measured values taken from publication PMC12270679 (2025).

Target: Unp-CTD (Saccharomyces cerevisiae, synthetic peptide, N-terminal FAM label, unphosphorylated; consensus RNAPII Rpb1 CTD heptad x3)
Test: FP; unphosphorylated CTD peptide

- Kd: 4.06 mM
B1: MBP-Asr1 (natural protein)
chain: MEECPICLADDQEGEQFGCLNVCGHKFHLNCIREWHKYSINLKCPICRVESTHLEVGEGQHALSINLKMGFMIKNAIDYVGAETTNERNEDDTGEQDQEIEFLSERLRGTLVMDTIKIIQCSICGDTDVSRLSLYCQDCEAIYHETCLRGLACEVGDRNTWQECTDCRSNALLELRMGAISSQLASYDSRNSMIFAGELRDKHSVKTQQMYEQIRNAKHKIQMHVRRALDRYPLPLLRFKDAYKHVNKQVSRKLYRLSDNKYLPDQYDYDSLARTGVHTELLIYCHDE
